From paper PMC7542444 come the findings set out here.

The target in the first assay is LEDGF/ΔIBD-B56γ chimera (LEDGF residues 1-324 and B56γ residues 11-380), wild type, O75475;Q13362. Briefly: pull-down. Particulars: parent: est. 100; read off a plot.
As to “His6-STLV-1 IN (6xHis-tagged STLV-1 MarB43 IN), wild type E218A”, the percent of parent (% of wild type) turned out to be 5.
For the substance “His6-STLV-1 IN (6xHis-tagged STLV-1 MarB43 IN), wild type H209A”, the percent of parent (% of wild type) is 23.
The same measure, in the same setting: with “His6-STLV-1 IN (6xHis-tagged STLV-1 MarB43 IN), wild type H209A; P211A” the figure was 21; with “His6-STLV-1 IN (6xHis-tagged STLV-1 MarB43 IN), wild type I216A”, 1; with “His6-STLV-1 IN (6xHis-tagged STLV-1 MarB43 IN), wild type P214A”, 57.
For “His6-STLV-1 IN (6xHis-tagged STLV-1 MarB43 IN), wild type P215A; P217A”, the percent of parent (% of wild type) is 15.

For another assay, the target named is His6-STLV-1 IN (6xHis-tagged STLV-1 MarB43 IN), wild type. The assay can be described thus: pull-down. To be noted: parent: est. 100; read off a plot.
Take “LEDGF/ΔIBD-B56γ chimera (LEDGF residues 1-324 and B56γ residues 11-380), wild type (from UniProt O75475;Q13362) E78A; T81A; H82A”: the percent of parent (% of wild type) was found to be 150.
Regarding “LEDGF/ΔIBD-B56γ chimera (LEDGF residues 1-324 and B56γ residues 11-380), wild type (from UniProt O75475;Q13362) R84A”, the percent of parent (% of wild type) is 140.
For “LEDGF/ΔIBD-B56γ chimera (LEDGF residues 1-324 and B56γ residues 11-380), wild type (from UniProt O75475;Q13362) R143A”, the percent of parent (% of wild type) stood at 46.
